The labels stand for the following.
B1: Azoarcus group I ribozyme (parent)
chain: GUGCCUUGCGCCGGGAAACCACGCAAGGGAUGGUGUCAAAUUCGGCGAAACCUAAGCGCCCGCCCGGGCGUAUGGCAACGCCGAGCCAAGCUUCGGCGCCUGCGCCGAUGAAGGUGUAGAGACUAGACGGCACCCACCUAAGGCAAACGCUAUGGUGAAGGCAUAGUCCAGGGAGUGGCGAAAGUCACACAAACCGG

The variants in the data set derive from B1. The data set can be described thus: reverse-splicing fitness (ratio to wild type); higher = more active; in vitro selection; Mg2+ level not given. In a few lines:
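An in vitro group I ribozyme library with randomized positions was T7-transcribed and gel-purified. In triplicate, 10 pmol RNA in EPPS pH 7.5 was reacted with 50 pmoles of a 30-nt RNA substrate for 1 h at 37 °C across several added MgCl2 levels (1–48 mM), then stopped with EDTA. Products were reverse transcribed from a substrate-complementary primer, PCR-amplified and sequenced (HiSeq 4000). Fitness is a variant's read proportion after selection over that before, normalised to wild type.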
As for A111G A120G U176G, the reverse-splicing fitness worked out at 0.0093.

Consider C82G A111U A120U C169U, for which the reverse-splicing fitness stood at 0.00476.

For C82U A120C A145C C150A C169A, the reverse-splicing fitness came to 0.00632. As for C82A A111U A120G A145G C150A C169G U176C, the reverse-splicing fitness came to 0.0255.

Take C82U A120C A145C C150A C169U U176C: the reverse-splicing fitness came to 0.00799.

On to C82U A111G A120U A145G U176A, for which the reverse-splicing fitness was 0.0106.

On to C82U A111G A120U A145U C150U C169G U176C, for which the reverse-splicing fitness was 0.00294. With A111C A145C C169G U176A, the reverse-splicing fitness came out at 0.0324. On to A111U A120G A145C C169A U176A, for which the reverse-splicing fitness worked out at 0.0217. C82U A111C A145U C150U: the reverse-splicing fitness was 0.148. To C82G A111C A120U C150U belongs 0.0243.

For the variant C82U A120C A145G, the reverse-splicing fitness was found to be 0.169. On to C82U A145U U176G, for which the reverse-splicing fitness came to 0.153.

For C82A A111G A120G A145C C150A C169G, the reverse-splicing fitness was determined as 0.00922. As to A111C A145U C150U C169A U176C, the reverse-splicing fitness came to 0.0129. In the case of C82A A120G A145C C150U C169U, the reverse-splicing fitness was determined as 0.00958. Turning to C82G A111U A120U A145G C169A U176G, the reverse-splicing fitness was determined as 0.00196.

On to A120U A145U C150A U176A, for which the reverse-splicing fitness is 0.151. Regarding C82A A111G A120U A145U C150A C169U U176G, the reverse-splicing fitness worked out at 0.0018. As for C82A A120G C150U C169U U176G, the reverse-splicing fitness came to 0.0068. On to C82A A120U A145G C169U U176A, for which the reverse-splicing fitness worked out at 0.00354. For C82A A111C A120U U176C the value was 0.0115; for C82A A111C A120C A145C C150G U176A, 0.00409.

In the case of C82U A120C C169A, the reverse-splicing fitness is 0.00809. As to A111U A120C A145G C150G C169G, the reverse-splicing fitness came to 0.00738. For the variant A111G A120U A145G C169A U176C, the reverse-splicing fitness was found to be 0.00372. In the case of A145G C150U C169U U176C, the reverse-splicing fitness turned out to be 0.149. For A120C C169A U176G the value was 0.00454; for C82A A111C A120G A145C C150A C169A U176A, 0.01; for C82A A120G A145U C150A C169G, 0.00799.

As for C82A A111U A120C A145U C150A C169G, the reverse-splicing fitness is 0.00953. With C82G A111G A120C A145C C150A C169G U176A, the reverse-splicing fitness came out at 0.026. On to C82U A120C A145C C150G C169U U176C, for which the reverse-splicing fitness came out at 0.00991.

Take C82A A111G A145C C150U U176C: the reverse-splicing fitness was 0.0542.

On to A111G A120U C150A C169A U176A, for which the reverse-splicing fitness amounted to 0.00442. To A111G C150A belongs 0.462; to C82U A111C A120U A145G C150U C169U, 0.00521; to C82A A111C A120C C150G C169U U176A, 0.00611. Turning to A111G A145C U176A, the reverse-splicing fitness was 0.718.

For the variant C82A A111C C150A U176A, the reverse-splicing fitness worked out at 0.0165. With C82G A120C A145C C169A U176C, the reverse-splicing fitness came to 0.0062.

As to C82G A111C A120C C150U C169G U176A, the reverse-splicing fitness worked out at 0.0152.

As to C82A A111C A120U A145U C169G U176A, the reverse-splicing fitness turned out to be 0.00336. On to C82U A111G A120G A145U C150U C169U U176A, for which the reverse-splicing fitness came to 0.02. Regarding C82U A111C A120G A145C C150A C169U U176C, the reverse-splicing fitness was determined as 0.00704. Consider C82G A111U A120C C150G C169U U176G, for which the reverse-splicing fitness was found to be 0.00705. Regarding C82A A111U A120C A145U C150G C169A, the reverse-splicing fitness is 0.00962.

Regarding C82U A111G A120U C150A C169A, the reverse-splicing fitness amounted to 0.00324. As to C82U A120G A145C C150G C169A, the reverse-splicing fitness came to 0.00904.

With C82A A111C A120C A145C C169U U176G, the reverse-splicing fitness was found to be 0.00595. As for C82U A120U A145C C150A, the reverse-splicing fitness was determined as 0.00884. As for C82A A120C U176A, the reverse-splicing fitness came out at 0.04.

A111C A145U C150G C169G: the reverse-splicing fitness is 0.0101. For C82G A111U A120G A145C C150U, the reverse-splicing fitness worked out at 0.00849.

For C82A A111G A145G C150A C169G, the reverse-splicing fitness was determined as 0.00998. In the case of C82U A111U A120U A145U C150G C169G U176G, the reverse-splicing fitness is 0.00209. C82A A120U A145C C150A C169A U176G: the reverse-splicing fitness was 0.00198. On to C82G A111G A145G C150A C169A U176A, for which the reverse-splicing fitness was 0.0234.

As to C82A A120U A145U U176C, the reverse-splicing fitness stood at 0.0582. Take A111U C150U U176C: the reverse-splicing fitness came to 0.638. As for C82A A111G C150A C169G U176C, the reverse-splicing fitness was 0.0249. For the variant C82G A111C A120C A145U C150G U176C, the reverse-splicing fitness was 0.0099. To A111U A120C C150G C169A belongs 0.00861; to C82G A145U C150G U176C, 0.0376; to C82A A111C C150U C169A, 0.0115. Take A120U A145U C150A C169U U176C: the reverse-splicing fitness worked out at 0.015.

C82A A145U C150A C169U: the reverse-splicing fitness came out at 0.00955.

On to A120C A145C C150G U176G, for which the reverse-splicing fitness was found to be 0.0256. Turning to C82U A111U A120G A145G C150A C169A, the reverse-splicing fitness is 0.0105.

Turning to C82G A111U A120U A145C C150U C169U U176G, the reverse-splicing fitness was 0.00228. Regarding C82G A111C A120U A145G C150A C169A U176A, the reverse-splicing fitness came out at 0.00791. In the case of C82U A111C A120C A145U C150A C169U U176A, the reverse-splicing fitness worked out at 0.0184. Consider A111U A145G C150G U176G, for which the reverse-splicing fitness was found to be 0.0223. As to C82G A111G A120G A145C C150A C169A U176A, the reverse-splicing fitness came to 0.0139. For C82A A111C A120G A145C C150U C169U U176A, the reverse-splicing fitness was 0.0143. For C82U A111C A120G C150G C169G U176C the value was 0.00488; for C82G A120G A145G C150A C169U U176C, 0.0168. On to C82U A120U A145G C150U U176C, for which the reverse-splicing fitness was determined as 0.0607. C82A A120U A145U C169U U176C: the reverse-splicing fitness amounted to 0.00276. For A111U A120U A145U U176G the value was 0.0645; for C82A A111U A120G A145U C150G C169A U176C, 0.00995; for C82G A120U A145G C150U C169U, 0.00803.

For the variant C82A A111C A120U C150U C169G, the reverse-splicing fitness was 0.00537. With C82U A145C C150G U176A, the reverse-splicing fitness was determined as 0.0431.
